pKd: −log10 of the molar value.

The target in assay [1] is CH103 (human). The experiment in a line: SPR; ProteOn XPR36 (Bio-Rad), GLC chip; IgG captured on amine-coupled anti-human capture antibody (Human Antibody Capture Kit), antigen as analyte; 1x HBS-EP+ pH 7.4 with BSA 1 mg/ml; equilibrium or kinetic Langmuir model.
Assay [2] has as its target CH103 WT with the H2-6 residue at position 67 (E->Y) (human). The assay is described as above.
For assay [3], the target named is H2-6 position 59 mutant (Y->F) (human). Described as above.
Sequence of H2-6 position 59 mutant (Y->F) (human) (heavy, as listed by the source, chain 1 of 2): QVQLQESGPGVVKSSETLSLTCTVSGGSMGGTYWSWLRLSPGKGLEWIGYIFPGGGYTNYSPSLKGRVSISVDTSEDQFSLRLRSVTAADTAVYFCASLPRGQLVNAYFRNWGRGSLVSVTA
Sequence of H2-6 position 59 mutant (Y->F) (human) (light, as listed by the source, chain 2 of 2): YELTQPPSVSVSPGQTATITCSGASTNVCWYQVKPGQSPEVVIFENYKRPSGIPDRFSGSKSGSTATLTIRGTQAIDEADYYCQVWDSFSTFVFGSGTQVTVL
The target of assay [4] is H2-6 position 67 mutant (Y->E) (human). The description is as above.
Sequence of H2-6 position 67 mutant (Y->E) (human) (heavy, as listed by the source, chain 1 of 2): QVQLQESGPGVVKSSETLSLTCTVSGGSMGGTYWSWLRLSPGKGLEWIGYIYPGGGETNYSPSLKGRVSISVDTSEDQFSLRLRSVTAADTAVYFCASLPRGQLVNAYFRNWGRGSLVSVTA
Sequence of H2-6 position 67 mutant (Y->E) (human) (light, as listed by the source, chain 2 of 2): as the sequence (light, as listed by the source, chain 2 of 2) above
The target in assay [5] is CH103 (human). The experiment in a line: SPR; Biacore 4000, CM5 chip; IgG captured on amine-coupled anti-human capture antibody (Human Antibody Capture Kit), antigen as analyte; 1x HBS-EP+ pH 7.4 with BSA 1 mg/ml; equilibrium or kinetic Langmuir model; apparent KD. (SPR reads the build-up and loss of mass on a sensor chip optically.)

Sequence of CH103 (human) (heavy, as listed by the source, chain 1 of 2): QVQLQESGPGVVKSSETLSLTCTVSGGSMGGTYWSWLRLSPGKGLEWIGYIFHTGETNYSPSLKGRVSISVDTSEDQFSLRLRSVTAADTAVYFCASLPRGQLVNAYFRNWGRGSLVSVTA
Sequence of CH103 (human) (light, as listed by the source, chain 2 of 2): as the sequence (light, as listed by the source, chain 2 of 2) above
Sequence of CH103 WT with the H2-6 residue at position 67 (E->Y) (human) (heavy, as listed by the source, chain 1 of 2): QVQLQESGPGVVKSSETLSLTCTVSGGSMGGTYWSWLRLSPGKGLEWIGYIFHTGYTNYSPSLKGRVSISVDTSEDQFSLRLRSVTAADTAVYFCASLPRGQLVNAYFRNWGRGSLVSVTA
Sequence of CH103 WT with the H2-6 residue at position 67 (E->Y) (human) (light, as listed by the source, chain 2 of 2): as the sequence (light, as listed by the source, chain 2 of 2) above

Broadly, the pKd is the negative decadic logarithm of the Kd, by convention in mol/L. Regarding gp120 Core Bal (domain or fragment), the negative-log Kd (pKd) with CH103 (human) [1] is 5.96; in assay [2], 7.93; in assay [3], 7.89; in assay [4] it was 6.67; with CH103 (human) [5] it was 7.04.

Take gp120 Core HXB2 (domain or fragment): the negative logarithm of the Kd (pKd) with CH103 (human) [1] is 6.86; in assay [2], 8.64; in assay [3], 8.66; in assay [4], 7.51; in the assay with CH103 (human) [5], 7.28.

The values are drawn from publication PMC5942852.
